Source: patent US6362395 (WASHINGTON STATE UNIVERSITY RESEARCH FOUNDATION, dated 2002)

Target: calmodulin (unlabeled, as used in the gel mobility-shift and kinase assays of Example 2) (spinach, UniProt P04353 2-149)
Experiment: gel mobility-shift, non-denaturing PAGE, 0.5 mM CaCl2

Question: Does KLRAAAIASVLSS (peptide, UniProt Q43531 328-340, looked up) [synthetic peptide CCaMK 328-340] bind?
Answer: no binding
